Measurements: patent publication US7829301B2, “Screening assays for binding antagonists of the AMD-associated variant of factor H (H384)” (The University of Manchester, priority 2006, dated 2010)
Residue numbers refer to the chain shown, from its start.

T1: CRP (Homo sapiens, UniProt P02741)
T1 construct: purchased Calbiochem
T1 sequence (P02741 19-224): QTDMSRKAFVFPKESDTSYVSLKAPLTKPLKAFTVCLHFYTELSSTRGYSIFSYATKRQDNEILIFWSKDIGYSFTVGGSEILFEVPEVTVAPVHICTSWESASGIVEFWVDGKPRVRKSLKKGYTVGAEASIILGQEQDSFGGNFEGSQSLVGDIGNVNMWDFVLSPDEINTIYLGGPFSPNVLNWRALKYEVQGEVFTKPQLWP

B1: FHCCP6-8(H384): recombinant protein of Factor H CCPs 6-8, H384 allotype, with N-terminal non-authentic glycine (SEQ ID NO: 1) (protein, listed as Homo sapiens)
chain: MGTLKPCDYPDIKHGGLYHENMRRPYFPVAVGKYYSYYCDEHFETPSGSYWDHIHCTQDGWSPAVPCLRKCYFPYLENGYNQNHGRKFVQGKSIDVACHPGYALPKAQTTVTCMENGWSPTPRCIRVKTCSKSSIDIENGFISESQYTYALKEKAKYQCKLGYVTADGETSGSITCGKDGWSAQPTCI
modifications: VARIANT (1)...(188) Protein sequence of the FHCCP6-8 (H384) construct
B2: FHCCP6-8(Y384): recombinant Factor H CCPs 6-8, Y384 variant obtained by site-directed mutagenesis (SEQ ID NO: 3) (protein, listed as Homo sapiens)
chain: B1 chain with H84Y
modifications: VARIANT (1)...(188) FHCCP6-8 (Y384 allotype of mature Factor H)

Experiments:
Linearized pcDNA3-vector = assay: Protein/DNA binding assay (agarose gel migration); details: 5 μg protein, 30 ng DNA, 30 minutes at 37° C.
Method: Plasmid pcDNA3 DNA (Invitrogen) was linearized using EcoR1 (Fermentas) in a buffer accompanying the enzyme.
Linearized pcDNA3-vector (30 ng) was incubated with 5 μg of FHCCP(H384), FHCCP6-8(Y384) or full length FH (positive control) in the binding buffer (as described above) in a total volume of 20 μl for 30 minutes at 37° C. The negative control contained no protein. DNA loading buffer (0.25% (w/v) bromophenol blue, 0.25% (w/v) xylene cyanol, 30% (v/v) glycerol in deionized water) was added (1 μl) and the samples were run on an agarose gel (0.8% (w/v), Cambrex) containing ethidium bromide (Sigma) and visualized by UV. Changes in DNA migration served as a means of evaluating the presence of DNA-protein complexes.

[1] = Microtitre plate assay: biotinylated proteins binding to immobilized heparin oligosaccharides of defined length
Description: FIG. 10: Comparisons of the interactions of FHCCP6-8(H384) and the corresponding Y384 variant with heparin oligomers of different lengths. The binding of biotinylated-FHCCP6-8(H384) (black bars) or biotinylated-FHCCP6-8(Y384) (grey bars) to heparin oligosaccharides (dp4 to dp18) immobilized on microtitre plates plasma polymerized with allylamine. All values are plotted as mean absorbance values (n=8)±S.E.
The heparin/HS/DS-binding activities of the FHCCP6-8(H384) and FHCCP6-8(Y384) variants (using biotinylated-FHCCP6-8 constructs), and in some cases full-length Factor H (detected with an antibody), were compared using an assay where the glycosaminoglycans (GAGs) were immobilized on allylamine-coated EpranEx plates (Mahoney et al (2004) Anal. Biochem. 330, 123-129), kindly supplied by Plasso Technology Ltd., Sheffield, UK. Previously, we have shown that heparin/HS can bind non-covalently to surfaces plasma polymerized with allylamine in such a way that these GAGs can still associate with a wide-range of proteins (Mahoney et al. (2005) J. Biol. Chem. 280, 27044-27055; Mahoney et al. (2004) ibid).
In the case of the biotinylated FHCCP6-8(H384) and FHCCP6-8(Y384) constructs, bound material was detected by adding 200 μl/well of a 1:10,000 dilution of ExtrAvidin alkaline phosphatase (Sigma, Cat. No. E-2636) for 30 minutes. […]

[2] = Heparin affinity chromatography on HiTrap Heparin column; type: binding; details: pH 7.3; linear salt gradient 130 mM to 1 M NaCl
Method: The heparin-binding properties of H384 and Y384 variants of FHCCP6-8 were compared to full-length human factor H by affinity chromatography on a HiTrap Heparin column (Amersham Biosciences) or a ‘home-made’ column in which 20 mg 4IS was coupled to 1.5-ml CNBr-activated Sepharose (Sigma) in 0.1 M NaHCO3, 0.5 M NaCl, pH 8.3 using the manufacturer's protocol. The 1-ml HiTrap column and ˜1-ml 4IS-column were equilibrated in 20 mM HEPES, 130 mM NaCl, 1 mM EDTA, pH 7.3. Protein (200 μg recombinant proteins; 100 μg full-length factor H) was loaded onto the columns (in 1 ml equilibration buffer) and any unbound material was removed with 5 column volumes of the same buffer and collected in 1-ml fractions. Protein was eluted from the columns using a linear salt gradient of 130 mM to 1 M NaCl over 20 min by mixing 20 mM HEPES, 1 M NaCl, 1 mM EDTA, pH 7.3 with the equilibration buffer at a flow rate of 1 ml/min.
This approach was also used to determine the relative heparin-binding activities of K370A, R386A and K387A mutants, where 200 μg of protein was loaded individually onto the HiTrap column.

CRP = target: T1, CRP; assay: Protein/protein binding assay with coated CRP
Method: FMOD was isolated from bovine articular cartilage (Heinghrd et al., (1986) J. Biol. Chem. 261, 13866-13872) and recombinant CRP was obtained from Calbiochem. Deglycosylated FMOD was prepared by treatment with N-glycosiadase F (Roche Applied Science) as previously described (Sjöberg et al. (2005) J. Biol. Chem. 280, 32301-32308).
CRP or FMOD was coated overnight at 4° C. onto microtiter plates (Maxisorp, Nunc) at a concentration of 10 μg/ml in 75 mM sodium carbonate buffer, pH 9.6. Wells treated only with coating buffer or 1% (w/v) BSA (Sigma) in coating buffer (for the assays involving FMOD) were used as negative controls. Between each step the wells were washed extensively with 50 mM Tris-HCl, 150 mM NaCl, 0.1% (v/v) Tween 20, pH 7.5. All wells were blocked with 1% (w/v) BSA (Sigma) in phosphate buffered saline (Invitrogen) for 1 hour at 37° C. […] The amount of bound protein was assessed using a goat polyclonal anti-FH antibody (Quidel, Cat # A312) followed by HRP-labeled anti-goat secondary antibodies (Dako) and the OPD development kit (Dako). Detection of biotinylated protein was performed using a StreptABComplex/HRP-kit from Dako, and in both cases the absorbance at 490 nm was measured to quantify protein binding.

Molecule	DNA-protein complex formation (DNA migration in agarose gel) (Linearized pcDNA3-vector)	binding to heparin oligosaccharides relative to the other variant ([1]; 4- to 18-mers)	NaCl concentration at elution from HiTrap heparin affinity column [2] [mM NaCl]	binding to CRP relative to the other variant (CRP; biotinylated proteins)	oligosaccharide length giving maximal binding [1] [sugars]	binding to CRP relative to the other variant (CRP; detection with polyclonal anti-FH antibody, p<0.03)
B1	retained DNA in its protein-complex form more efficiently	bound better	340	lower CRP binding	–	–
B2	migrated mainly in the non-complexed form	–	390	–	~12	bound significantly better
